Experimental data reported in US20210206856A1 (PANDION OPERATIONS, published 2021).

T1: human MAdCAM expressed on cells (human, UniProt Q13477 19-382)
T1 construct: whole, on cells; also called MADCAM1
T1 sequence (looked up): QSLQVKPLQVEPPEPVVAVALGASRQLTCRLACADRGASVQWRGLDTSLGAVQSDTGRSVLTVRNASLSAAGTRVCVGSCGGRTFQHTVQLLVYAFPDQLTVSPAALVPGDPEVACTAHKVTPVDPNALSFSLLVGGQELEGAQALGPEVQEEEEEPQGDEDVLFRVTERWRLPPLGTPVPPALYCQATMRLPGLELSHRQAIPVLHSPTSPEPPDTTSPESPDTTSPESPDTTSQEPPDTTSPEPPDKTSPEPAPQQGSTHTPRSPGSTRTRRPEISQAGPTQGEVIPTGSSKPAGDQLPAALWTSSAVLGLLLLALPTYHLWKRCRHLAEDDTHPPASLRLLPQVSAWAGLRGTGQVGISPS

T2: mouse MAdCAM expressed on cells (mouse, UniProt Q61826 22-405)
T2 construct: whole, on cells
T2 sequence (looked up): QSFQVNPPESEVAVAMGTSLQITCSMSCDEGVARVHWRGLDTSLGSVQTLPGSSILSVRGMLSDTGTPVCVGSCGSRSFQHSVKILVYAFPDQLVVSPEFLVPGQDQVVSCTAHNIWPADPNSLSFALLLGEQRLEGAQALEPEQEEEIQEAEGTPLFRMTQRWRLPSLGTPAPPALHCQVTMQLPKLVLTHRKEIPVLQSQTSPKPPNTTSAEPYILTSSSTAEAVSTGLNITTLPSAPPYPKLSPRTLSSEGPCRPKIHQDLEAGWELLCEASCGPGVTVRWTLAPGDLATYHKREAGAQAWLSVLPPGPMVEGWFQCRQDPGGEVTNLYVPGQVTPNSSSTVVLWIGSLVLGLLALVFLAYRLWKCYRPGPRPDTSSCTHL


Legend:
[1] = biological target: T1, human MAdCAM expressed on cells; assay: cell binding
[2] = biological target: T2, mouse MAdCAM expressed on cells; assay: cell binding

Row | Binder | binding result [1] | binding result [2]
1 | MAdCAM Antibody Table 2 Clone 52 (antibody, human IgG1, V domains shown) VH: EVQLLESGGGLVQPGGSLRLSCAASGFTFDDYGMSWVRQAPGKGLEWVSYISSSSSYIYYADSVKGRFTISRDNSKNTLYLQMNSLRAEDTAVYYCAREIAAAGFYGMDVWGQGTTVTVSS VL: not shown | binds | no binding
2 | MAdCAM Antibody Table 2 Clone 37 (antibody, human IgG1, V domains shown) VH: EVQLLESGGGLVQPGGSLRLSCAASGFTFSDYGMPWVRQAPGKGLEWVSAISGSGGSTYYADSVKGRFTISRDNSKNTLYLQMNSLRAEDTAVYYCARDGGWQPAAILDYWGQGTLVTVSS VL: DIQMTQSPSSLSASVGDRVTITCRASQGISNNLNWYQQKPGKAPKLLIYDASNLETGVPSRFSGSGSGTDFTLTISSLQPEDFATYYCQQSYSTPLTFGQGTKVEIK | binds | no binding
3 | MAdCAM Antibody Table 2 Clone 60 (antibody, human IgG1, V domains shown) VH: EVQLLESGGGLVQPGGSLRLSCAASGFTFSDHGMHWVRQAPGKGLEWVSVIYGGESTYYADSVKGRFTISRDNSKNTLYLQMNSLRAEDTAVYYCARDPAVAGGGIFDYWGQGTLVTVSS VL: DIQMTQSPSSLSASVGDRVTITCRASQGISNYLAWYQQKPGKAPKLLIYDASNLETGVPSRFSGSGSGTDFTLTISSLQPEDFATYYCQQSYSTCYTFGQGTKLEIK | binds | binds
4 | MAdCAM Antibody Table 2 Clone 39 (antibody, human IgG1, V domains shown) VH: QVQLVQSGAEVKKPGASVKVSCKASGYTFTSYYMHWVRQAPGQGLEWMAWMNPNSGNTGYAQKFQGRVTMTRDTSTSTVYMELSSLRSEDTAVYYCARDYDFWSGSLGYWGQGTLVTVSS VL: DIQMTQSPSSLSASVGDRVTITCRASQGISNYLAWYQQKPGKAPKLLIYAASSLQSGVPSRFSGSGSGTDFTLTISSLQPEDFATYYCQQSYSTPWTFGQGTKVEIK | binds | no binding
5 | MAdCAM Antibody Table 2 Clone 42 (antibody, human IgG1, V domains shown) VH: QVQLVQSGAEVKKPGASVKVSCKASGYTLTDYYMHWVRQAPGQGLEWMGIINPSGGSTSYAQKFQGRVTMTRDTSTSTVYMELSSLRSEDTAVYYCAREEYSSSSGYFDYWGQGTLVTVSS VL: DIQMTQSPSSLSASVGDRVTITCRASQGISSWLAWYQQKPGKAPKLLIYAASSLQSGVPSRFSGSGSGTDFTLTISSLQPEDFATYYCQQSYSTPLTFGQGTKVEIK | binds | no binding
6 | MAdCAM Antibody Table 2 Clone 38 (antibody, human IgG1, V domains shown) VH: QVQLVQSGAEVKKPGASVKVSCKASGYTFTDYFLHWVRQAPGQGLEWMGWMNPTSGNTGYAQKFQGRVTMTRDTSTSTVYMELSSLRSEDTAVYYCAREGEGSGFDYWGQGTLVTVSS VL: DIQMTQSPSSLSASVGDRVTITCRASQGINSWLAWYQQKPGKAPKLLIYDASNLETGVPSRFSGSGSGTDFTLTISSLQPEDFATYYCQQSYSTPLTFGGGTKVEIK | binds | no binding
7 | MAdCAM Antibody Table 2 Clone 56 (antibody, human IgG1, V domains shown) VH: EVQLVESGGGLVKPGGSLRLSCAASGFTFSSYWMSWVRQAPGKGLEWVSAIGTGGGTYYAAPVKGRFTISRDDSKNTLYLQMNSLKTEDTAVYYCAREWLVPYYGMDVWGQGTTVTVSS VL: DIQMTQSPSSLSASVGDRVTITCRASQSISRWLAWYQQKPGKAPKLLIYGASNLQSGVPSRFSGSGSGTDFTLTISSLQPEDFATYYCQQSYSTPWTFGQGTKVEIK | binds | no binding
8 | MAdCAM Antibody Table 2 Clone 53 (antibody, human IgG1, V domains shown) VH: QVQLVQSGAEVKKPGASVKVSCKASGYTFTSYYMHWVRQAPGQGLEWMGWMNPNSGNTGYAQKFQGRVTMTRDTSTSTVYMELSSLRSEDTAVYYCAREGLGYCTNGVCWNYYGMDVWGQGTLVTVSS VL: DIQMTQSPSSLSASVGDRVTITCRASQGISSWLAWYQQKPGKAPKLLIYGASSLQSGVPSRFSGSGSGTDFTLTISSLQPEDFATYYCQQSYSTPYTFGQGTKVEIK | binds | no binding
9 | MAdCAM Antibody Table 2 Clone 41 (antibody, human IgG1, V domains shown) VH: QVQLVQSGAEVKKPGASVKVSCKASGYTFTSYYMHWVRQAPGQGLEWMGIINPSGGSTSYAQKFQGRVTMTRDTSTSTVYMELSSLRSEDTAVYYCARDTGYSYGRYYYYGMDVWGQGTLVTVSS VL: DIQMTQSPSSLSASVGDRVTITCRASQSIGRWLAWYQQKPGKAPKLLIYDASNLQSGVPSRFSGSGSGTDFTLTISSLQPEDFATYYCQQSYSIPITFGQGTKVEIK | binds | no binding
10 | MAdCAM Antibody Table 2 Clone 43 (antibody, human IgG1, V domains shown) VH: QVQLVQSGAEVKKPGASVKVSCKASGYTFTSYGISWVRQAPGQGLEWMGWMHPKSGDTGLTQKFQGRVTMTRDTSTSTVYMELSSLRSEDTAVYYCARDTPYYYYGMDVWGQGTTVTVSS VL: DIQMTQSPSSLSASVGDRVTITCRASQSISSWLAWYQQKPGKAPKLLIYAASSLQSGVPSRFSGSGSGTDFTLTISSLQPEDFATYYCQQSYSVPITFGQGTKVEIK | binds | no binding
11 | MAdCAM Antibody Table 2 Clone 59 (antibody, human IgG1, V domains shown) VH: EVQLLESGGGLVQPGGSLRLSCAASGFSFSDYGMHWVRQAPGKGLEWVSAISGSGGSTYYADSVKGRFTISRDNSKNTLYLQMNSLRAEDTAVYYCARDGGWQPAAILDYWGQGTLVTVSS VL: DIQMTQSPSSLSASVGDRVTITCRASQGISNNLNWYQQKPGKAPKLLIYDASNLETGVPSRFSGSGSGTDFTLTISSLQPEDFATYYCQQSYSTPLTFGGGTKVEIK | binds | no binding
12 | MAdCAM Antibody Table 2 Clone 40 (antibody, human IgG1, V domains shown) VH: QVQLVQSGAEVKKPGASVKVSCKASGYTLTTWYMYWVRQAPGQGLEWMGWINPNRGATNYAQKFQGRVTMTRDTSTSTVYMELSSLRSEDTAVYYCAKGDLWGAMDVWGQGTLVTVSS VL: DIQMTQSPSSLSASVGDRVTITCRASDNIGSWLAWYQQKPGKAPKLLIYAASSLQSGVPSRFSGSGSGTDFTLTISSLQPEDFATYYCQQGYSTPPTFGQGTKVEIK | binds | no binding
13 | MAdCAM Antibody Table 2 Clone 54 (antibody, human IgG1, V domains shown) VH: QVQLVQSGAEVKKPGSSVKVSCKASGGTLSRYGVSWVRQAPGQGLEWMGGIIPIFGTTNYAQKFQGRVTITADESTSTAYMELSSLRSEDTAVYYCARDRVYYDSSGYPTWYFDLWGRGTLVTVSS VL: EIVMTQSPATLSVSPGERATLSCRASQSVSSSYLAWYQQKPGQAPRLLIYGASTRATGIPARFSGSGSGTEFTLTISSLQSEDFAVYYCQQYGSSPITFGQGTKVEIK | binds | no binding
14 | MAdCAM Antibody Table 2 Clone 45 (antibody, human IgG1, V domains shown) VH: EVQLVESGGGLVKPGGSLRLSCAASGFTFGDYAMSWVRQAPGKGLEWVSYISGDIGYTNYAAPVKGRFTISRDDSKNTLYLQMNSLKTEDTAVYYCARDVAATGNWYFDLWGRGTLVTVSS VL: not shown | binds | no binding
15 | MAdCAM Antibody Table 2 Clone 57 (antibody, human IgG1, V domains shown) VH: EVQLLESGGGLVQPGGSLRLSCAASGFSVSSNYMSWVRQAPGKGLEWVAGISYDGSSKPYADSVKGRFTISRDNSKNTLYLQMNSLRAEDTAVYYCARSRGIAARPLQHWGQGTLVTVSS VL: not shown | binds | no binding
16 | MAdCAM Antibody Table 2 Clone 58 (antibody, human IgG1, V domains shown) VH: EVQLLESGGGLVQPGGSLRLSCAASGFSVSSNYMSWVRQAPGKGLEWVAGISYDGSSKPYADSVKGRFTISRDNSKNTLYLQMNSLRAEDTAVYYCARSRGIAARPLQHWGQGTLVTVSS VL: not shown | binds | no binding
17 | MAdCAM Antibody Table 2 Clone 36 (antibody, human IgG1, V domains shown) VH: EVQLLESGGGLVQPGGSLRLSCAASGFTFDDYALHWVRQAPGKGLEWVSAISGDGRSTTYADSVKGRFTISRDNSKNTLYLQMNSLRAEDTAVYYCARDGTVNGATGWFDPWGQGTLVTVSS VL: not shown | binds | binds
18 | MAdCAM Antibody Table 2 Clone 55 (antibody, human IgG1, V domains shown) VH: EVQLLESGGGLVQPGGSLRLSCAASGFTFDDFAMHWVRQAPGKGLEWVSGISGNGDSRYYADSVKGRFTISRDNSKNTLYLQMNSLRAEDTAVYYCARDASYGGNYGMDVWGQGTTVTVSS VL: DIQMTQSPSSLSASVGDRVTITCQASQDIRNYLNWYQQKPGKAPKLLIYKASTLESGVPSRFSGSGSGTDFTLTISSLQPEDFATYYCQQANSFPLTFGPGTKVDIK | binds | no binding
19 | MAdCAM Antibody Table 2 Clone 44 (antibody, human IgG1, V domains shown) VH: not shown VL: DIQMTQSPSSLSASVGDRVTITCQASQDISNYLNWYQQKPGKAPKLLIYAASSLQSGVPSRFSGSGSGTDFTLTISSLQPEDFATYYCQQTYSGWTFGPGTKVDIK | binds | no binding
